According to patent publication US20100168031:

Experiments:
[1] = tested on: L(+)-biotinyl-aminohexanoyl-Glu-Asp-Glu-Asp-Asp-Tyr-His-Asn-Pro-Gly-Gly-OH (SEQ ID NO:14)
[2] = tested on: L(+)-biotinyl-aminohexanoyl-Glu-Glu-Gly-Ala-Pro-Asp-Tyr-Glu-Asn-Leu-Gln-Glu-Leu-Asn (SEQ ID NO:12)
[3] = tested on: L(+)-biotinyl-aminohexanoyl-Glu-Ser-Ile-Asp-Asp-Tyr-Val-Asn-Val-Pro-Glu-Gly-OH (SEQ ID NO:13)
[4] = tested on: compounds of SEQ ID NO:12; SEQ ID NO: 13; or SEQ ID NO: 14

recombinant full-length human Syk (p72syk protein tyrosine kinase)
phosphorylation of the peptide by the kinase, time resolved fluorescence resonance energy transfer [1]: are phosphorylated by Syk
phosphorylation of the peptide by the kinase, time resolved fluorescence resonance energy transfer [2]: are phosphorylated by Syk
phosphorylation of the peptide by the kinase, time resolved fluorescence resonance energy transfer [3]: are phosphorylated by Syk
fluorescence units (TR-FRET phosphorylation assay, 370 nM peptide, 10 nM Syk, 20 µM ATP) [4]: 20,000 to 30,000 fluorescence units
